Reference: PMC3069497

T1: Peptide C (bovine)
T1 sequence (peptide): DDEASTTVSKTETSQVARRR


Key:
[1] = molecular target: bovine rhodopsin, photoactivated (Rho*) (bovine) (UniProt P02699)
[2] = molecular target: bovine rhodopsin, photoactivated (Rho*) (bovine) (UniProt P02699); remark: listed apart in the source
Peptide C (bovine) = molecular target: T1, Peptide C (bovine)

Sequence of UniProt P02699 (P02699 whole entry): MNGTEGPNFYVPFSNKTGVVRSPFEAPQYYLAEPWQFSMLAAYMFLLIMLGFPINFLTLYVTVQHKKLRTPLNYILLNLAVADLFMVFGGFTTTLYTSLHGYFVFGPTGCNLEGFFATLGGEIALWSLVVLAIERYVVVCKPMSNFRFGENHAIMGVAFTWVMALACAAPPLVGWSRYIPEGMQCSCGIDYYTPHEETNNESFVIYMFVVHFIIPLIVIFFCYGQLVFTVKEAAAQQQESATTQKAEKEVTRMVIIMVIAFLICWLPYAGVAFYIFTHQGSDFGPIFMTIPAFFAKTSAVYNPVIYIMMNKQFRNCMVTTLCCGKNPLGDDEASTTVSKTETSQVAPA

Binder | KM of ROS (Rho*) phosphorylation [1] [µM] | decrease of the magnitude of the fluorescence change of Meta II decay [2] [%] | KM of peptide C phosphorylation (Peptide C (bovine)) [µM]
bovine GRK1 C-terminally truncated at residue 535 and tagged with hexahistidine (GRK1_(535)H6), wild type (enzyme) MDFGSLETVVANSAFIAARGSFDASSGPASRDRKYLARLKLPPLSKCEALRESLDLGFEGMCLEQPIGKRLFQQFLRTHEQHGPALQLWKDIEDYDTADDALRPQKAQALRAAYLEPQAQLFCSFLDAETVARARAGAGDGLFQPLLRAVLAHLGQAPFQEFLDSLYFLRFLQWKWLEAQPMGEDWFLDFRVLGRGGFGEVFACQMKATGKLYACKKLNKKRLKKRKGYQGAMVEKKILAKVHSRFIVSLAYAFETKTDLCLVMTIMNGGDIRYHIYNVDEDNPGFQEPRAIFYTAQIVSGLEHLHQRNIIYRDLKPENVLLDDDGNVRISDLGLAVELKAGQTKTKGYAGTPGFMAPELLLGEEYDFSVDYFALGVTLYEMIAARGPFRARGEKVENKELKQRVLEQAVTYPDKFSPASKDFCEALLQKDPEKRLGFRDGSCDGLRTHPLFRDISWRQLEAGMLTPPFVPDSRTVYAKNIQDVGAFSTVKGVAFEKADTEFFQEFASGTCPIPWQEEMIETGVFGDLNVWRPDG | 3.4 | 35 | 320
GRK1_(535)H6 A18E (enzyme) MDFGSLETVVANSAFIAERGSFDASSGPASRDRKYLARLKLPPLSKCEALRESLDLGFEGMCLEQPIGKRLFQQFLRTHEQHGPALQLWKDIEDYDTADDALRPQKAQALRAAYLEPQAQLFCSFLDAETVARARAGAGDGLFQPLLRAVLAHLGQAPFQEFLDSLYFLRFLQWKWLEAQPMGEDWFLDFRVLGRGGFGEVFACQMKATGKLYACKKLNKKRLKKRKGYQGAMVEKKILAKVHSRFIVSLAYAFETKTDLCLVMTIMNGGDIRYHIYNVDEDNPGFQEPRAIFYTAQIVSGLEHLHQRNIIYRDLKPENVLLDDDGNVRISDLGLAVELKAGQTKTKGYAGTPGFMAPELLLGEEYDFSVDYFALGVTLYEMIAARGPFRARGEKVENKELKQRVLEQAVTYPDKFSPASKDFCEALLQKDPEKRLGFRDGSCDGLRTHPLFRDISWRQLEAGMLTPPFVPDSRTVYAKNIQDVGAFSTVKGVAFEKADTEFFQEFASGTCPIPWQEEMIETGVFGDLNVWRPDG | 6.1 | – | 410
GRK1_(535)H6 L6A (enzyme) MDFGSAETVVANSAFIAARGSFDASSGPASRDRKYLARLKLPPLSKCEALRESLDLGFEGMCLEQPIGKRLFQQFLRTHEQHGPALQLWKDIEDYDTADDALRPQKAQALRAAYLEPQAQLFCSFLDAETVARARAGAGDGLFQPLLRAVLAHLGQAPFQEFLDSLYFLRFLQWKWLEAQPMGEDWFLDFRVLGRGGFGEVFACQMKATGKLYACKKLNKKRLKKRKGYQGAMVEKKILAKVHSRFIVSLAYAFETKTDLCLVMTIMNGGDIRYHIYNVDEDNPGFQEPRAIFYTAQIVSGLEHLHQRNIIYRDLKPENVLLDDDGNVRISDLGLAVELKAGQTKTKGYAGTPGFMAPELLLGEEYDFSVDYFALGVTLYEMIAARGPFRARGEKVENKELKQRVLEQAVTYPDKFSPASKDFCEALLQKDPEKRLGFRDGSCDGLRTHPLFRDISWRQLEAGMLTPPFVPDSRTVYAKNIQDVGAFSTVKGVAFEKADTEFFQEFASGTCPIPWQEEMIETGVFGDLNVWRPDG | 12 | – | 280
GRK1_(535)H6 E7A (enzyme) MDFGSLATVVANSAFIAARGSFDASSGPASRDRKYLARLKLPPLSKCEALRESLDLGFEGMCLEQPIGKRLFQQFLRTHEQHGPALQLWKDIEDYDTADDALRPQKAQALRAAYLEPQAQLFCSFLDAETVARARAGAGDGLFQPLLRAVLAHLGQAPFQEFLDSLYFLRFLQWKWLEAQPMGEDWFLDFRVLGRGGFGEVFACQMKATGKLYACKKLNKKRLKKRKGYQGAMVEKKILAKVHSRFIVSLAYAFETKTDLCLVMTIMNGGDIRYHIYNVDEDNPGFQEPRAIFYTAQIVSGLEHLHQRNIIYRDLKPENVLLDDDGNVRISDLGLAVELKAGQTKTKGYAGTPGFMAPELLLGEEYDFSVDYFALGVTLYEMIAARGPFRARGEKVENKELKQRVLEQAVTYPDKFSPASKDFCEALLQKDPEKRLGFRDGSCDGLRTHPLFRDISWRQLEAGMLTPPFVPDSRTVYAKNIQDVGAFSTVKGVAFEKADTEFFQEFASGTCPIPWQEEMIETGVFGDLNVWRPDG | 13 | – | 410
GRK1_(535)H6 V9A (enzyme) MDFGSLETAVANSAFIAARGSFDASSGPASRDRKYLARLKLPPLSKCEALRESLDLGFEGMCLEQPIGKRLFQQFLRTHEQHGPALQLWKDIEDYDTADDALRPQKAQALRAAYLEPQAQLFCSFLDAETVARARAGAGDGLFQPLLRAVLAHLGQAPFQEFLDSLYFLRFLQWKWLEAQPMGEDWFLDFRVLGRGGFGEVFACQMKATGKLYACKKLNKKRLKKRKGYQGAMVEKKILAKVHSRFIVSLAYAFETKTDLCLVMTIMNGGDIRYHIYNVDEDNPGFQEPRAIFYTAQIVSGLEHLHQRNIIYRDLKPENVLLDDDGNVRISDLGLAVELKAGQTKTKGYAGTPGFMAPELLLGEEYDFSVDYFALGVTLYEMIAARGPFRARGEKVENKELKQRVLEQAVTYPDKFSPASKDFCEALLQKDPEKRLGFRDGSCDGLRTHPLFRDISWRQLEAGMLTPPFVPDSRTVYAKNIQDVGAFSTVKGVAFEKADTEFFQEFASGTCPIPWQEEMIETGVFGDLNVWRPDG | 18 | – | 350
GRK1_(535)H6 V10A (enzyme) MDFGSLETVAANSAFIAARGSFDASSGPASRDRKYLARLKLPPLSKCEALRESLDLGFEGMCLEQPIGKRLFQQFLRTHEQHGPALQLWKDIEDYDTADDALRPQKAQALRAAYLEPQAQLFCSFLDAETVARARAGAGDGLFQPLLRAVLAHLGQAPFQEFLDSLYFLRFLQWKWLEAQPMGEDWFLDFRVLGRGGFGEVFACQMKATGKLYACKKLNKKRLKKRKGYQGAMVEKKILAKVHSRFIVSLAYAFETKTDLCLVMTIMNGGDIRYHIYNVDEDNPGFQEPRAIFYTAQIVSGLEHLHQRNIIYRDLKPENVLLDDDGNVRISDLGLAVELKAGQTKTKGYAGTPGFMAPELLLGEEYDFSVDYFALGVTLYEMIAARGPFRARGEKVENKELKQRVLEQAVTYPDKFSPASKDFCEALLQKDPEKRLGFRDGSCDGLRTHPLFRDISWRQLEAGMLTPPFVPDSRTVYAKNIQDVGAFSTVKGVAFEKADTEFFQEFASGTCPIPWQEEMIETGVFGDLNVWRPDG | 21 | – | 390
GRK1_(535)H6 A11E (enzyme) MDFGSLETVVENSAFIAARGSFDASSGPASRDRKYLARLKLPPLSKCEALRESLDLGFEGMCLEQPIGKRLFQQFLRTHEQHGPALQLWKDIEDYDTADDALRPQKAQALRAAYLEPQAQLFCSFLDAETVARARAGAGDGLFQPLLRAVLAHLGQAPFQEFLDSLYFLRFLQWKWLEAQPMGEDWFLDFRVLGRGGFGEVFACQMKATGKLYACKKLNKKRLKKRKGYQGAMVEKKILAKVHSRFIVSLAYAFETKTDLCLVMTIMNGGDIRYHIYNVDEDNPGFQEPRAIFYTAQIVSGLEHLHQRNIIYRDLKPENVLLDDDGNVRISDLGLAVELKAGQTKTKGYAGTPGFMAPELLLGEEYDFSVDYFALGVTLYEMIAARGPFRARGEKVENKELKQRVLEQAVTYPDKFSPASKDFCEALLQKDPEKRLGFRDGSCDGLRTHPLFRDISWRQLEAGMLTPPFVPDSRTVYAKNIQDVGAFSTVKGVAFEKADTEFFQEFASGTCPIPWQEEMIETGVFGDLNVWRPDG | 8.8 | – | 310
GRK1_(535)H6 N12A (enzyme) MDFGSLETVVAASAFIAARGSFDASSGPASRDRKYLARLKLPPLSKCEALRESLDLGFEGMCLEQPIGKRLFQQFLRTHEQHGPALQLWKDIEDYDTADDALRPQKAQALRAAYLEPQAQLFCSFLDAETVARARAGAGDGLFQPLLRAVLAHLGQAPFQEFLDSLYFLRFLQWKWLEAQPMGEDWFLDFRVLGRGGFGEVFACQMKATGKLYACKKLNKKRLKKRKGYQGAMVEKKILAKVHSRFIVSLAYAFETKTDLCLVMTIMNGGDIRYHIYNVDEDNPGFQEPRAIFYTAQIVSGLEHLHQRNIIYRDLKPENVLLDDDGNVRISDLGLAVELKAGQTKTKGYAGTPGFMAPELLLGEEYDFSVDYFALGVTLYEMIAARGPFRARGEKVENKELKQRVLEQAVTYPDKFSPASKDFCEALLQKDPEKRLGFRDGSCDGLRTHPLFRDISWRQLEAGMLTPPFVPDSRTVYAKNIQDVGAFSTVKGVAFEKADTEFFQEFASGTCPIPWQEEMIETGVFGDLNVWRPDG | 20 | – | 500
GRK1_(535)H6 F15A (enzyme) MDFGSLETVVANSAAIAARGSFDASSGPASRDRKYLARLKLPPLSKCEALRESLDLGFEGMCLEQPIGKRLFQQFLRTHEQHGPALQLWKDIEDYDTADDALRPQKAQALRAAYLEPQAQLFCSFLDAETVARARAGAGDGLFQPLLRAVLAHLGQAPFQEFLDSLYFLRFLQWKWLEAQPMGEDWFLDFRVLGRGGFGEVFACQMKATGKLYACKKLNKKRLKKRKGYQGAMVEKKILAKVHSRFIVSLAYAFETKTDLCLVMTIMNGGDIRYHIYNVDEDNPGFQEPRAIFYTAQIVSGLEHLHQRNIIYRDLKPENVLLDDDGNVRISDLGLAVELKAGQTKTKGYAGTPGFMAPELLLGEEYDFSVDYFALGVTLYEMIAARGPFRARGEKVENKELKQRVLEQAVTYPDKFSPASKDFCEALLQKDPEKRLGFRDGSCDGLRTHPLFRDISWRQLEAGMLTPPFVPDSRTVYAKNIQDVGAFSTVKGVAFEKADTEFFQEFASGTCPIPWQEEMIETGVFGDLNVWRPDG | 11 | – | 350
GRK1_(535)H6 I16A (enzyme) MDFGSLETVVANSAFAAARGSFDASSGPASRDRKYLARLKLPPLSKCEALRESLDLGFEGMCLEQPIGKRLFQQFLRTHEQHGPALQLWKDIEDYDTADDALRPQKAQALRAAYLEPQAQLFCSFLDAETVARARAGAGDGLFQPLLRAVLAHLGQAPFQEFLDSLYFLRFLQWKWLEAQPMGEDWFLDFRVLGRGGFGEVFACQMKATGKLYACKKLNKKRLKKRKGYQGAMVEKKILAKVHSRFIVSLAYAFETKTDLCLVMTIMNGGDIRYHIYNVDEDNPGFQEPRAIFYTAQIVSGLEHLHQRNIIYRDLKPENVLLDDDGNVRISDLGLAVELKAGQTKTKGYAGTPGFMAPELLLGEEYDFSVDYFALGVTLYEMIAARGPFRARGEKVENKELKQRVLEQAVTYPDKFSPASKDFCEALLQKDPEKRLGFRDGSCDGLRTHPLFRDISWRQLEAGMLTPPFVPDSRTVYAKNIQDVGAFSTVKGVAFEKADTEFFQEFASGTCPIPWQEEMIETGVFGDLNVWRPDG | 9.5 | – | 220
